{
  "source": "the DeepSol protein solubility set",
  "data": [
    {"assay": "soluble on expression in E. coli; label from the status in PepcDB or PDB records", "values": [
      {"sequence": "MFENTKKALETFRTAIECVKCKKPRGDLQYLGSSCKHAYCWECIATFQQKPSGKRSSVARHMCPSCAFPLDTSKITEAHMLKTCFDTLSELNDLLQKVGTTSLTQAEFACTQNIFNKEKTPADAVEKFLETQAHMPDEMGQLGEEDDDLMCKDENRENSNSPELDIFHDYSKEASPTRNSTKRPSTVSVHERKPKRTLTEILQRRSTAPAATGVATYAQAFGSSSNPVKAEIIEEDIFSKAIPLTKRQASMSASAKKQPKLEPEEPEEVPSTSRSRKNSIKSDKIERRSQSPMSFGEKSMSVKSEQRRSSYGTRRGEAVLVNSIRNNRIPQLRSAVEAGTCVNEKEDGKTPLYVAVENSSLEAVKILVEAGAVINASCGSTLETTLHEAVRRQNTQIVEYLLSKGASIKIRNIAGKTVEEMAKSDPKIRKIIEKFKTEQRVLQPVVAPPKSRLHFVQLIDEKMLTESEKRKLPGKINIVPADMDSPTHVVVTVDLKTRVLNINKEHIGEILKAIIKSGMIVSRDWLRACIIDPSKVDDDRSYMVQKVRWMEGEVFENTIEQWKKTITKMQPKLFAGCKFFIPKPKYNFLDRPALFEIIRSAGGQAAAREPIIDEKDPPPYHNANLKPNFVLYSLTHDIGDKFRDCTKYNLVSEQWLIEAILGCSITTPPH", "soluble on expression in E. coli": "not soluble"},
      {"sequence": "MAGDPMRMVAHRFLRPQEAHMQVLVRDNNVDQALRILKKKLQREGVFREMRLREAFEKPSIKKAREKAEAIGRQRKLARKQMQREGLLPTKPRKDKLEHHHHHH", "soluble on expression in E. coli": "not soluble"},
      {"sequence": "MRIHAFHHLYQYRLERSTKPFLARGGKIKRCLYCLVELTHCLCAHQPDIESQVAVLLIVSENEVFKPSNTGRLIADTVKETYVYQWSRTEPNPEMLALLSNPAYYPVLIFPAETEEDKTRVLSPIPTEFAGKKPLLVLIDGSWREAKRIFRKSPYLASLPLVSVEPERLSQYIMRKSENEQHLATAEVASLVLDMFGDRHSASTLSLWFEAFKETYLTCKSRNKPSITKPALQRWIAHQQNANCLLEHHHHHH", "soluble on expression in E. coli": "not soluble"},
      {"sequence": "MGSDKIHHHHHHMAAPDTPPDSPPPISAVEMPSGKDAGTENFPVGSVLLPARLRPHVARFYAFARAIDDIADSPDLDAAAKIDRLQGFEEAITGRDTTDPAYAKGHALRVSLEATGVPAIHGVELIAAFKQDAVKGRYATWAEMMDYCRLSAAPVGRYLIDLHGGSRAGYASSDALCVALQVINHLQDCQDDFRVLDRVYLPADWLAAEGASVSDLDRAACTPGLRRVLDRCLEGTRRLLDAARPLPGDIIDRRLGLEAAVIVSIAQTLTGRLARQDPLAQRVKLGKAATAFCAARACAAYLMVPGAYR", "soluble on expression in E. coli": "not soluble"},
      {"sequence": "MGSDKIHHHHHHMSKVSLTIPPDFILGAAASAWQTEGWSGKKAGQDSYLDLWYKQDRQVWHNGYGPAKATDFFNRYREDVALMKLAGLTHYRTSINWSRFMLDYEKGIVDEEYAAYIDNLLDEMHRQGIEPMICLEHYELPACLLEKYQGWSSKQVVEWFVLYADTVFARYAGKVKRWFTFNEPIVVQTRVYLDALRYPYEQNTHTWMQWNHHKNLATAKVVQRFRQKGYDREGGSIGVILNPEVTYPRSRAAHDVKAAHLYDLFYNRVFLDPALKGEYPAELIALLAQHQVKWDYTEEELAIIRDNTVDEVGINLYYPHRVKAPSREWNKETPFHPAYYYEHFELPGRRMNTSRGWEINPKIIYDMAKRIEREYDNVPWFVAENGIGIENEARFKDDAGVIQDDYRIAFIAEHLYWTLKAKEEGANCRGYMLWAFTDNVSPMNAFKNRYGLIEIDLEQDRQRRPKKSAAWFRQLHDTRQLELTLDDEEK", "soluble on expression in E. coli": "not soluble"},
      {"sequence": "MNELVDTTEMYLRTIYDLEEEGVTPLRARIAERLDQSGPTVSQTVSRMERDGLLRVAGDRHLELTEKGRALAIAVMRKHRLAERLLVDVIGLPWEEVHAEACRWEHVMSEDVERRLVKVLNNPTTSPFGNPIPGLDELGVGPEPGADDANLVRLTELPAGSPVAVVVRQLTEHVQGDIDLITRLKDAGVVPNARVTVETTPGGGVTIVIPGHENVTLPHEMAHAVKVEKV", "soluble on expression in E. coli": "soluble"},
      {"sequence": "GMTALRQDIDPNGLLEYSVVYTDRALNHMSKAFQEVMNDLLSNLKTVYNAEAAVIIPGSGTYGMEAVARQLTIDEDCLIIRNGWFSYRWTQILEKGKFAKSSTVLTAERTEDTEAPKPFAPVDIETAVAKIKEDKSAIVYAPHVETSSGIILSEEYIKALSEAVHSVGGLLVIDCIASGCVWLDMKELGIDVLISAPQKGWSSTPCAGLVMLSAAAIKKVESTESNCFSLDLKQWLTIMRAYENGGHAYHATMPTDSLRQFRDAILEAKEIGFDILRDAQWELGNRVRKVLTDKGIESVAAEGFEAPGVVVSYTERDDMHKGSAFAEAGLQIAAGVPLKVGEPDNFKTFRLGLFGLDKLTDIDGTVERFEKALDEVLAK", "soluble on expression in E. coli": "soluble"},
      {"sequence": "MAKSRLLLSELLDQLSFALCIVRNDYVIVKVNEYFESRVIFDGETMQGKNILELFPESADYLKRKIDTALVIESSSFSSWEQKPHLLPFKSSRPVSGEEEQMYQNLEVIPIHSEDGTIEHVCLCVYDVTIQASQQQELKRVSQKLEEEHQSQKVLIKKLEDAQGQLIQSEKMASIGQLSAGIAHEINNPVGFITSNLQTLSDYFNSLEKVLKSITQTIGQSKDTALNEACQKILKQGQVDFILEDTAELITESLEGSSRVMSIVKNLKEFSHVDRSEWSYANLENCIESTLKIINNEIKYNITLEKHYAANVPDVFCQPMQINQVLLNILVNASHAIKGEGTITITLQSAGDDFVEIHIRDTGCGIPEEIRERIFEPFFTTKPVGSGTGLGLSVSYGIINKHNGTISVTSEVGKGSEFTIRLPVNPSAEAVDNTDAKAM", "soluble on expression in E. coli": "not soluble"},
      {"sequence": "MSLTGANDSNYDPFAGLSFRVGVAENKNTTFRNKMEDVHTYIANFAERVDWGYFAIFDGHAGKDTARWCGNNLHTLLEEEIDRNSDEGSPPPTPITGKDDLREDLYKCFVKADELIEKSGQGKSGCTAAVAVLRWESDNEEPVSHTKSQDGGKFDFKPTKNHKRLLYTSNVGDLRIVLCRAGQAYRLSYDHKATDTHEINRIEDNGGLVLKNRVNGVLAVTRSLGDTYMKLLVIGVPFTTATEITADDEFIIIACDGLWDVVSDKHACKLAAESFKQGYSPLQVAKKLCQFAIELSTTDNVTVMVVQLDNDVFSEGHHHHHH", "soluble on expression in E. coli": "soluble"},
      {"sequence": "MAIEIKVPDIGADEVEITEILVKVGDKVEAEQSLITVEGDKASMEVPSPQAGIVKEIKVSVGDKTQTGALIMIFDSADGAADAAPAQAEEKKEAAPAAAPAAAAAKDVNVPDIGSDEVEVTEILVKVGDKVEAEQSLITVEGDKASMEVPAPFAGTVKEIKVNVGDKVSTGSLIMVFEVAGEAGAAAPAAKQEAAPAAAPAPAAGVKEVNVPDIGGDEVEVTEVMVKVGDKVAAEQSLITVEGDKASMEVPAPFAGVVKELKVNVGDKVKTGSLIMIFEVEGAAPAAAPAKQEAAAPAPAAKAEAPAAAPAAKAEGKSEFAENDAYVHATPLIRRLAREFGVNLAKVKGTGRKGRILREDVQAYVKEAIKRAEAAPAATGGGIPGMLPWPKVDFSKFGEIEEVELGRIQKISGANLSRNWVMIPHVTHFDKTDITELEAFRKQQNEEAAKRKLDVKITPVVFIMKAVAAALEQMPRFNSSLSEDGQRLTLKKYINIGVAVDTPNGLVVPVFKDVNKKGIIELSRELMTISKKARDGKLTAGEMQGGCFTISSIGGLGTTHFAPIVNAPEVAILGVSKSAMEPVWNGKEFVPRLMLPISLSFDHRVIDGADGARFITIINNTLSDIRRLVM", "soluble on expression in E. coli": "soluble"},
      {"sequence": "MSSLMCHGGGLPEVRVARPSGRAERIAALGELCRAGSIVHIGEAARQIGASEITIRRDLSVGAGGLVCLGGYVMRASEGAEGYSLTAAEASEAGAKEALAVRAAALIEPGDTVFLDCGTTTPYLAARVPQNARVTVVTQALNIAETVARLTGVNLILLAGIYHPETASFSSEEAVAMLGRINITKGFFSAAGVHETEGVTCFHFHEVPVKRAALARSRQPYLVCDGSKWGRLRPATYARLEEFEGWIGAPDRAALEHHHHHH", "soluble on expression in E. coli": "not soluble"},
      {"sequence": "MGSDKIHHHHHHMDIENMKAFNKVAELKSISAAANELHHLQSNMSNKIKNIEKQFQTQLFFRHSNGVELTKEGEKIYQQFKKMILLWEETIDIINNEEETISIGITQSSLPMEFNTIIKEFYQQFPNKKLSIVSGSTSELIPKIANRELTIAYVAELEKENLFQDSQIISQTLSWDKLVFAGNTAGKSVQKILAEERLYVFSKQCYSYRALAALINDFNIPNVSISEINIPETLVEICNNELGVGIIPESIALNYHFLNYETLPTEYAALRKTLIYHADHTISNGEKWLIEKSKPAFKS", "soluble on expression in E. coli": "not soluble"},
      {"sequence": "MGSDKIHHHHHHMEKVIYIVWRDPSTKPETFAHDLRTKLAQQLLQLGARGVQINVQDEDVAPAAALRQVNTLPQMDGLVSVWVDSAITSLRRPFDDAVLAATGRMAGYLVTESQPIRNTRHPARAGERTPGFSQLAFLKRPPRLTHEAWLDTWHNRHTQVAIDTQDTFLYVQNVVVRALTYGAPPLDAVVEEGFPEAAMTDPQAFFDAPGDEAKYQRNLAAMMESCQRFIDFDKIDVVASSQYIVRPPAA", "soluble on expression in E. coli": "not soluble"},
      {"sequence": "MGSDKIHHHHHHMGSGSVIWRLLPPAQGDPTTELAAGAAMLAGLKETNCPAIRWYAAGSRPALVIGSGQKLSDVDHTALRQQGVTLHRRSSGGTAVLFVPGLLMQDIALPLDHPLYHPDVSESYRWLGDVWQATLAQFGIHTSLIDIAAARADRQTLDPLIARACFGGQSPYEVLVAGRKLVGFAQIRRREGVLFQVGLYTHWPGRQLATLLAMNEAERTIFGERLADRVTDLVTVCESPPDIHQIAAAFAMVLRQRYEVSITAADWTEAEREAMIAAQARFAPLRLEG", "soluble on expression in E. coli": "not soluble"},
      {"sequence": "RKLATAAKVSAMGSLNDLFESVSDRLRDSGRLIVVDEAENLPLRALEIVRRLHDETGCGLVLSGMPRLVANLRGKHGELVQLYSRVSVALNLGESLPDDELFEIAKAALPDAVKHLLPDSVQALITVIGFNETLELVRLMGGTTYPLRQGYTKNSQSRVAYLEEIIGSEAAGRLVEAMAPCNLFIPRCETALYELRNRKIRSQFDRQTAGGTPAYEAVNDLALAHRLSDRHVWRILKQADKEAEQENLF", "soluble on expression in E. coli": "not soluble"},
      {"sequence": "MKQWADDENLPMERYKNYQMIVPAFIIKDILDGKIPETFEDSKNIKMIEASWGEESYTKGHIPTSVHVNTDIIEPPPTWMLDNDDNLTKFALDYGLTKDDTVIVSSSTPMASYRLAVILRYIGVKDVRVLNGGTNSWLSAGYELEFISNPKLEHHHHHH", "soluble on expression in E. coli": "not soluble"},
      {"sequence": "MASKTIIVMSDSHGDRDIVQAIKDKYLGQVDAIFHNGDSELNSSDPIWAGIYVVGGNCDYDTGYPDRLVTQLGTVTIAQTHGHLYHINFTWDKLDYFAQEVVADICLYGHLHRPAAWQVGQTLFMNPGSVTQPRGEINEKLYARVELTDTQIKVDYFTRDHKLYPSLSKEFKR", "soluble on expression in E. coli": "not soluble"},
      {"sequence": "MANFQATIHSRPLSPEFMTQARRPASTIQAVLTNLREKISLQSILPGARLTEEELVDNYSIPRAMAREVLAVLEDRGIVRRIPNKGAVVAHVDMQWVYHYYDAREALDGMMVRLAARQTRPEDWADLVEQFGEPFQKALETGDVDRLISLIETFRNRLQTAANNPVLSDLAERIHERIRVVRQRVVLLPGRAETMVADYRAVLAALARSDAEEAEQLMGILNRNNRAAIQKYERYVV", "soluble on expression in E. coli": "not soluble"},
      {"sequence": "MGHHHHHHSHKIRVAHTPDADDAFMFYAMTHGKVDTWLEIEHVIEDIETLNRKAFNAEYEVTAISAHAYALLDDKYRILSAGASVGDGYGPVVVAKSEISLDGKRIAVPGRYTTANLLLKLAVEDFEPVEMPFDRIIQAVLDEEVDAGLLIHEGQITYADYGLKCVLDLWDWWSEQVKLPLPLGLNAIRRDLSVEVQEEFLRAMRESIAFAIENPDEAIEYAMKYSRGLDRERAKRFAMMYVNDYTYNMPESVDAALKKLYEMAEAKGLIKMPKLDILRL", "soluble on expression in E. coli": "soluble"}
    ]}
  ]
}
